Where two headings read alike, the source gives them in different places.
Assays:
[1] = target: P-factor receptor (encoded by the mam2 gene) (Schizosaccharomyces pombe) (UniProt Q00619)
[2] = tested on: Sz. pombe cells; conditions: cited from earlier work
[3] = tested on: S. cerevisiae cells; conditions: cited from earlier work

colony formation of sxa2>ura4 reporter cells on plates lacking uracil with different concentrations of P-factor [1] [units/ml]	Substance	Sensitivity of cells to the toxin [2]	Sensitivity of cells to the toxin ([3]; S. cerevisiae spheroplasts (cell wall enzymatically removed))	Sensitivity of cells to the toxin ([3]; intact S. cerevisiae cells)
> 10	P-factor mating pheromone (peptide)			
	Diphtheria toxin	sensitive	sensitive	resistant

Reference: patent publication US20040110252A1, “Yeast-based assay” (priority 2000, published 2004)
